Assay: yeast display, Sf9 membrane polyspecificity reagent, FACS + sequencing; frameworks hold sequencing errors
Procedure, shortened: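 In a synthetic yeast display library (Saccharomyces cerevisiae BJ5465), nanobody expression was induced with galactose for 36–48 hours. FACS gates were set low and high (top ~1%) using anti-HA fluorescence for expression and streptavidin fluorescence for binding of the Sf9 membrane reagent. Each polyreactivity label is drawn from the gate of origin.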

Sequence | polyreactivity (PSR sort gate)
QVQLVESGGGLVQAGGSLRLICAASGFIFPVNAMGWYRQAPGKERELVAAITSSGGDTYYADSVKGRFTISRDNAKNTVYLQMNSLKPEDTAVYYFAAEYTQEQEDYDYWGQVTQVTVSS | low polyreactivity
QVQLVESGGGLVQAGGRLRLSCPASGRTFPPYAMGWYRQAPGKERELVGAISRRAGTTYYADSVKGRFTISRDNAKNTVYLQMNSLKPEDTAVYYCAALTESSSYGYWGLGTQVTVSS | low polyreactivity
QVQLVESGGGLVQAGGSLRLSCAATGRTFRLYAMGWYRQAPGKERELVAAITRGGRTNYADSVKGRFTISRDNAKNTVYLQMNSLKPEDTAVYYCAARYRLPIPGTQYEYWGQGTQVTVSS | low polyreactivity
QVQLVESGGGLVQAGGSLRLSCAASGSTFKSYVMGWYRAAPGKERELVAAISTGDSTYYADSVKGRFTISRDNAKNTVYLQMNSLKPEDTAVYYCAADPGYTVEPWEDDYWGQGTQVTVSS | low polyreactivity
QVQLVESGGGLVQAGGSLRLSCAASGSIFRWYAIGWYRQAPGKERELVATICWSTGTTYYADSVKGRFTISRDNAKNTVYLQMNSLKPEDTAVYYCAKVSTYRSSYSLKSGYGNDYWGQGTQVTVSS | low polyreactivity
QVQLVESGGGIVQAGGSLRLSCAASGFISSVNAMGWYRQAPGKDRELVAAISDSATSTYYADSVKGRFTISRDNAKNTVYLQMNSLKPEDTAVYYCDAYSHYVGYEYWGQGTQVTVSS | high polyreactivity
QVQLVESGGGLVQAGGSLRLSCAASGRIFGKNVMGLYRKAPGKERELVAAINRSSRTYYADSVKGRFTISRDNAKNTVYLQMNSLKPEDTAVYYCAAHAFPDGDYWGQGTQVTVSS | high polyreactivity
QVQLVESGGGLVQAGGSLRLSCAASGRTFIYNAMGWYRQAPGKERELVAAISTSGGRTYYADSVKGRFTISRDNAKNTVYLQMNSLKPEDTAVYYCNAVRSYRMDYWGQGTQVTVSS | high polyreactivity
QVQLVESGGGLVQAGGSLRLSCAASGLTSNGYTMGWYRQAPGKERELVAAITGRDGSTYADSVKGRFTISRDNAKNTVYLQMNSLKPEHTAVYYCAARLWRYRRYDYWGQGTQVTVSS | high polyreactivity
QVQLVESGGGLVQAGGSLRVSCAASGFTFRHNAMGWYRQAPGKERELVAVISSTGTYADSVKGRFTISRDNAKNTVYLQMNSLKPEDTAVYYCAAGSDYGGSYAYDYWGQGTQVTVSS | low polyreactivity
QVQLVESRGGLLQAGGSLRLSCAASGFTFRQYTMGWYRQAPGKERELVAGITSSGTRTYYADSVKGRFTISRDNAKNTVYLQMNSLKPEDTAVYYCATYSRWDYGYWGQGTQVTVSS | high polyreactivity
QVQLVESGGGLVQAGGSLRLSCAASGSTFGHYAMGWYRPAPGKERELVAVISRSGARTYYADSVKGRYTISRDNAKNTVYLQMNSLKPEDTAVYYCNAGPYGGNPFDYWGQGTQVTVSS | high polyreactivity
QVQLVESGGGLVQAGGSLRLSCAASGITFYGNAMGWYRQAPGKERELVAAITYSGTSTYYADSVKGRFTISRDNAKNTVYLQMNSLKPEDTAVYYCAADEWYLVDYWGQGTQVTVSS | low polyreactivity
QVQLVESGGGLVQAGGSLRLSCAASGIIFHKYSMGWYRQAPGKERELVAVITWRGGTTYYADSVKGRFTISRDNAKNTVYLQMNSLKPEDTAVYYCAAKDRSPRVRYQYEYWGQGTQVTVSS | high polyreactivity
QVQLVESGGGLVQAGGSLRLSCAASGRIFLVYVMGWYRQAPAKERELVAANSWSGGSTYYADSVKGRFTISRDNAKNTVYLQMNSLKPEDTAVYYFAAYYRGRNFDYWGQATQVTVSS | high polyreactivity
QVQLVESGGGLVQAGGSLRLTCAASGIIFRGYAMGWYRQPPGKERELVAGITSGVRTYYADSVKGRFTISRDNAKNTVYLQMTSLKPEDTAVYYSNADAYGDDWKIYDYWGQGTQVTVSS | low polyreactivity
QVQLVESGGGLVQAGGSLRLSCAASGYTFSQNAMGWYRPAPGKERELVAGITTRGTTTYYADSVKGRFTISRDNAKNTVYLQMNSLKPEDTAVYYCAADNSYTDNYWGQGTQVTVSS | low polyreactivity
QVQLVESGGGLVQAGGSLRLSCAASGSIFGYNTMGWSRQAPGKERELVASISYSGGSTYYADSVKGRFTISRDNAKNTVYLQMNSLKPEDTAVYYCNTGSRYRPNRRYGYWGQGTQVTVSS | high polyreactivity
QVQLEESGGGLVQAGGSLRLSCAASGSTFGYNAMGWYRQAPGKERELVAAITSGGRTKYADSVKGRFTISRDNAKNTVYLQMNSLKPEDTAVYYCATDQSYRFLFYRAYDMDYWGQGTQVTVSS | high polyreactivity
QVQLVESGGGLVHAGGSLRLSCAAYGSIFNYYAMGWYRQAPGKERVFVADISGSGSSTYYADSVKGRFTISRDNAKNTFYLQKNSLKPEDTAVYYCNAEYYWGVGYYPYSDYGYWGQGTQVTVSS | low polyreactivity
QVQLVESGGGLVQAGGSLRLSCAASGSIFVYYAMGWYRQAPGKERELVAGISTSGGSTYYADSVKGRFTISRDNAKNTVYLQMNSLKPEDTAVYYCAAVDSFGYYKLYEYWGQGTQVTVSS | high polyreactivity
QVQLVESGGGLVQAGGSLRLSCAASGGIFKYYAMGWYRLAPGKERELVAAITSGGNTNYADSVKGRFTISRDNAKNTVYLQMNSLKPEDTAVYYCAARSISRRTWQYNYWGQGTQVTVSS | high polyreactivity

Sequence | polyreactivity (PSR sort gate)
QVQLVESGGGLVQAGGSLRLSCAASGRTFTSYPMGWYRQAPGKERELVAVITRRGGSTSYADSVKGRFTISRDNAKHTVYLQMNSLKPEDTAVYYCAAKRTWPDVKYIRYGYWGQGTQVTVSS | high polyreactivity
QVQLVESGGGLVQAGGSLRLSCAASGSTFSRNAMGWYRQAPGKERELVAAITRSGGSTYYADSVKGRFTISRDNAKNTVYLQMNSLKPEDTAVYYCAVAVPRGVYLYDYWGQGTQVTVSS | low polyreactivity
QVQLVESGGGLVQAGGSLRLSCAATGGTIYYYAMGWYRQAPGKERELVAAISTSGTSTYYADSVKGRFTISRDNAKNTVYLQMNSLKPEDTAVYYCAARGLRVSSRGYYWGQGTQVTVSS | high polyreactivity
QVQLVESGGGLVQAGGSLRLSCAASGITFPSYVMGWYRQAPGKEREFVAAITGSAGSTYYADSVKGRFTISRDNAKNTVYLQMNSLKPEDTAVYYCAARVRYVNPKYYYWGQGTQVTVSS | high polyreactivity
QVQLVESGGGLVQAGGSLRLSCAATGITFYTYAMGWYRQAPGKERELVAAITRSGGSTYYADSVKGRFTISRDNAKNTVYLQMNSLKPEDTAVYYCAADGGYIYWEHLYYSGSDYWGQGTQVTVSS | low polyreactivity
QVQLVESGGGLVQAGGSLRLSCAASGRIFYYNGMGWYRQAPGKERELVASIPRTSGRTFYADSVKGRFTISRDKAKNTVYLQMNSLKPEDTAVYYCAAVGSRYVLGEYGYWGQGTQVTVSS | high polyreactivity
QVQLVESGGGLVQAGGSLRLSCAASGFTFARYVMGWSRQAPGKERELVAGITYRVGSTYYADSVKGRFSISRDNAKNTVYLQMNSLKPEDTAVYYCAAYLSTGYYYWGQGTQVTVSS | high polyreactivity
QVQLVESGGGLVHAGGSLRLTCAASGSISSFYAMGWYRQEPGKERELVAGITSGGSTNYADSVKGRFTISRDNAKNTVYLQMNSLKAEDTAVYYCAAVYKCAGTHFDVFVKEFDYWGQGTQVTVSS | low polyreactivity
QVQLVESGGGLVQAGGSLRLSCAASGFIFYYYAMGWYRQAPGKERELVAAISWSGGITYYADSVKGRFTISRDNAKNTVYLQMNSLKPEDTAVYYCNAVSSGDMDYWGQGTQVTVSS | high polyreactivity
QVQLVESGGGLVQAGGSLRLSCAASGRTFGRNAMGWYRQATGKERELVAAISRSGASTYYADSVKGRFTISRDNAKNTVYLQMNSLKPEDTAVYYCAKDVWGSRYAYDYWGQGTQVTVSS | low polyreactivity
QVQLVESGGGLVQAGGSLRLSCAASGSTLSYNAMGWYRPATGKERELVAAISWSDGGTYYADSVKGRFTISRDNAKNTVYLQMNSLKPEDTAVYYCNAESQWSYYFIYDYWGQGTQVTVSS | high polyreactivity
QVQLVESGGGLVQAGGSLRLSCAASGGTFFYNAMGRYRQAPGKERELVAAINGGTSTNYADSVKGRFTISRDNAKNTVYLQMNSLKPEDTAVYYCAAVYRRLGRYDWYDYWGQGTQVTVSS | low polyreactivity
QVQLVESGGGLVQAGGSLRLSCAASGSIFRVYAMGWYRQAPGKERELVAAISSSGVRTSYADSVKGRFTISRDNAKNTVYLQMNSLKPEDTAVYYCNAAYGRRYDYWGQGTQVTVSS | high polyreactivity
QVQLVESGGGLVQAGGSLRLSCAASGSTFGRYVMGWYRQAPGKERELVAAISKNAGSTYYADSVKGRFTISRDNAKNTVYLHMNSLKPEDTAVYYCAADWRTKGYDSLGQGTQVTVSS | high polyreactivity
QVQIVESVGCLVQARGSLRLSSAASGFILVINAMGWYRQAPGKERELVAAINGGDITNYADSVKGRFTFSRDNAKNNVYLQMNSLKPEDTAVYYCSADGEDSLWTGYDYDYWGLGTQVTVSS | low polyreactivity
QVQLVESGGGLVQAGGSLRLSCAASGRTFYSNAMGWYRQAPGKERELVAAIRRSRGRTYYADSVKGRFTISRDIAKNTVYLQMNSLKPEDTAVYYCATARYRAEMGYWGQGTQVTVSS | high polyreactivity
QDQLVESGGGLVQAGGSLRLSCAASGLTFFYYAMGWSRQSPGKERELVAAISRGGSTYYADSVKGRFTISRDHAKYTVYLQMKSLNPEDTAVYYCAAKTYQKEIVRPMYYWGQGTQVTVSS | high polyreactivity
QVRLVESGGGLVQAGGSLRLSSAASGRIFNGNAMGWYRQAPGKERELVAAINRGGSTNYADSVKGRFTISRDNAKNTVYLQMNSLKPEDTAVYYCAAELLYATRWRRYSGYYDWGQGTQVTVSS | high polyreactivity
QVQLVESGGGLVQAGGSLRLSCAASGSIFSRYAMGWSRQAPGKERELVAAISKSGGTTYYADSVKGRFTISRDNAKNTVYLQMNSLKPEDTAVYYCNAKRYRNGSIGMGYWGQGSQVTVSS | high polyreactivity
QVQLVESGGGLVQAGGSLRLSCAASGFIFKGYDMGWYRQAPGKEREMVAAITSGSTNYADSVKGRFTNSRDNAKNTVYLQMNSVKPEDTAVYYCNAELGRATLYPRVFIERGGYWGQGTQVNVSS | low polyreactivity
QVQLVESRGGLVQAGGSLRLSCAASGFTFWFYAMGWYRQAPGKERELVAAISNAGGTNYADSVKGRFTISRDNAKYTVYLQMNSLKPEDTAVYYCAAAWPHWGDLGGTEWYLFYYWGQGTQVTVSS | low polyreactivity
